Data reported in patent publication US20090253131A1, “HYBRID FUSION REPORTER AND USES THEREOF” (Promega Corporation, priority 2007, published 2009).
Changes are numbered by the printed parent chain. Names and notes keep the numbering of the source.

B1: DhaA.D106C: DhaA with Asp106 replaced by Cys (protein, UniProt P0A3G2 1-293, looked up, variant D106C)
Haloalkane dehalogenase: MSEIGTGFPFDPHYVEVLGERMHYVDVGPRDGTPVLFLHGNPTSSYLWRNIIPHVAPSHRCIAPDLIGMGKSDKPDLDYFFDDHVRYLDAFIEALGLEEVVLVIHCWGSALGFHWAKRNPERVKGIACMEFIRPIPTWDEWPEFARETFQAFRTADVGRELIIDQNAFIEGALPKCVVRPLTEVEMDHYREPFLKPVDREPLWRFPNELPIAGEPANIVALVEAYMNWLHQSPVPKLLFWGTPGVLIPPAEAARLAESLPNCKTVDIGPGLHYLQEDNPDLIGSEIARWLPAL
B2: YC: DhaA.H272F based mutant Y273C (protein, UniProt P0A3G2 1-293, looked up, variant H272F Y273C)
Haloalkane dehalogenase: B1 Haloalkane dehalogenase with C106D, H272F, Y273C
B3: DhaA.D106C:H272F: DhaA double mutant D106C and H272F (protein, UniProt P0A3G2 1-293, looked up, variant D106C H272F)
Haloalkane dehalogenase: B1 Haloalkane dehalogenase with H272F
B4: YM: DhaA.H272F based mutant Y273M (protein, UniProt P0A3G2 1-293, looked up, variant H272F Y273M)
Haloalkane dehalogenase: B1 Haloalkane dehalogenase with C106D, H272F, Y273M
B5: YL: DhaA.H272F based mutant Y273L (protein, UniProt P0A3G2 1-293, looked up, variant H272F Y273L)
Haloalkane dehalogenase: B1 Haloalkane dehalogenase with C106D, H272F, Y273L
B6: DhaA.H272F: Rhodococcus rhodochrous dehalogenase DhaA with His272 replaced by Phe (protein, UniProt P0A3G2 1-293, looked up, variant H272F)
Haloalkane dehalogenase: B1 Haloalkane dehalogenase with C106D, H272F
B7: DhaA.D106E: DhaA single mutant D106E (protein, UniProt P0A3G2 1-293, looked up, variant D106E)
Haloalkane dehalogenase: B1 Haloalkane dehalogenase with C106E
B8: H11YL: second generation DhaA.H272F mutant, H11 recombined with Y273L (SEQ ID NO:3) (protein)
chain: SEIGTGFPFDPHYVEVLGERMHYVDVGPRDGTPVLFLHGNPTSSYLWRNIIPHVAPSHRCIAPDLIGMGKSDKPDLDYFFDDHVRYLDAFIEALGLEEVVLVIHDWGSALGFHWAKRNPERVKGIACMEFIRPIPTWDEWPEFARETFQAFRTADVGRELIIDQNAFIEGALPMGVVRPLTEVEMDHYREPFLKPVDREPLWRFPNELPIAGEPANIVALVEAYMNWLHQSPVPKLLFWGTPGVLIPPAEAARLAESLPNCKTVDIGPGLFLLQEDNPDLIGSEIARWLPAL
modifications: A synthetic mutant dehalogenase sequence

Experiments:
[1] = Binding of DhaA mutants to carboxytetramethylrhodamine chloroalkane substrate
Protocol: DhaA.H272 mutants, i.e. H272F/G/A/Q, bound to carboxytetramethylrhodamine-C10H21NO2—Cl.
A control mutant, DhaA.D106Q, single mutants DhaA.D106C, DhaA.D106Y, and DhaA.D106E, as well as double mutants DhaA.D106C:H272F, DhaA.D106E:H272F, DhaA.D106Q:H272F, and DhaA.D106Y:H272F were analyzed for binding to carboxytetramethylrhodamine-C10H21NO2—Cl. Carboxytetramethylrhodamine-C10H21NO2—Cl bound to DhaA.D106C, DhaA.D106C:H272F, DhaA.D106E, and DhaA.H272F. Thus, the bond formed between carboxytetramethylrhodamine-C10H21NO2—Cl and cysteine or glutamate at residue 106 in a mutant DhaA is stable relative to the bond formed between carboxytetramethylrhodamine-C10H21NO2—Cl and DhaA.WT. Other substitutions at position 106 alone or in combination with substitutions at other residues in DhaA may yield similar results. Further, certain substitutions at position 106 alone or in combination with substitutions at other residues in DhaA may result in a mutant DhaA that forms a bond with only certain substrates.

[2] = MagneGST-based labeling assay of DhaA mutants, biotin substrate; format: biochemical
From the text: An automated MagneGST™-based assay was used to screen the DhaA mutant protein libraries. […] The hits identified by the initial primary screen were located in the master plates, consolidated, re-grown and reanalyzed using the MagneGST™ assay.
In order to distinguish these recombined protein mutants from the mutants identified in round one of screening (first generation), they are referred to as “second generation” DhaA mutants.

[3] = Fluorescence polarization (FP) labeling kinetics of purified DhaA mutants, TMR substrate; format: biochemical
From the text: (§1) Fluorescence polarization (FP) is ideal for the study of small fluorescent ligands binding to proteins. It is unique among methods used to analyze molecular binding because it gives direct nearly instantaneous measure of a substrate bound/free ratio. Therefore, an FP assay was developed as an alternative approach to fluorimage gel analysis of the purified DhaA mutants.
(§2) Based on the sensitivity and truly homogenous nature of this assay, FP was used to characterize the labeling properties of the purified DhaA mutants with the fluorescently coupled substrates. The data from these studies was then used to calculate a second order rate constant for each DhaA mutant-substrate pair.

[4] = Kinetic labeling studies of purified DhaA mutants, fluorimage gel analysis; format: biochemical; details: fluorimaged gel, 10 ng protein, refined time-course
Protocol: Preliminary kinetic labeling studies were performed using several DhaA.H272F derived mutants. […] A more expanded time course analysis was performed on the DhaA.H272F A7 and the two second generation DhaA.H272F mutants A7YM and H11YL. […] The fluorescent bands on gel were quantitated and the relative rates of product formation determined. In order to determine a labeling rate, the concentration of the H11YL was reduced from 50 ng to 10 ng and a more refined time-course was performed. Under these labeling conditions a linear initial rate could be measured. Quantitation of the fluorimaged gel data allowed second order rate constants to be calculated.

[5] = FP
From the text: as §1, §2

[6] = molecular target: T1, rapamycin-mediated FRB/FKBP protein-protein interaction (Homo sapiens, UniProt P42345+P62942); experiment: Protein complementation labeling (PCL) in vitro with HT2 fragments, rapamycin-mediated FRB/FKBP; format: biochemical; details: with or without 1 μM rapamycin, 0.1 μM TMR ligand 2 hours
T1 construct: made in house; host or cells: cell-free: RiboMax transcription, Wheat Germ Plus translation
T1 sequence (P42345 2012-2144 limits assumed): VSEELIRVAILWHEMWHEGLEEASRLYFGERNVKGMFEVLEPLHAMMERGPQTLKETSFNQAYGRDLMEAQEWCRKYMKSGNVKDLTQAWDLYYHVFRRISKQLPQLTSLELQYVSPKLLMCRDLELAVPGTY
T1 sequence (P62942 whole entry, the tested form may be a part): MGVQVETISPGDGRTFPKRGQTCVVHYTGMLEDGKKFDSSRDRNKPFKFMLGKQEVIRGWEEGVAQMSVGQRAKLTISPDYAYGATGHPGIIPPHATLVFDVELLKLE
Protocol: The rapamycin-mediated FRB/FKBP protein-protein interaction and a mutant DhaA were employed in a PCL. FRB and FKBP will only interact when rapamycin is present. Therefore, if PCL is successful, the reconstituted reporter is labeled only when the fusion proteins are incubated together in the presence of rapamycin.
Two pF9 (Kan) vectors were generated which contained either FRB or FKBP ORF plus the linker sequence (GlyGlyGlyGlySer)2 upstream of the SgfI/PmeI sites. A mutant DhaA gene (HT2) at positions corresponding to those useful to prepare Renilla luciferase fragments for PCS (see Example 2 and FIG. 7) with FRB-N-terminal and FKBP-C-terminal fusions. HT2 N- and C-termini halves were amplified using PCR primers and cloned into the SgfI/PmeI sites. PCL was performed in vitro by expressing each clone individually using RiboMax followed by Wheat Germ Plus reactions (HT2). Protein was expressed with or without FluoroTect™. FluoroTect™ labeling ensured that all proteins were expressed in approximately equal amounts (data not shown). Unlabeled proteins were then incubated alone or with the appropriated partner with or without 1 μM rapamycin. Ten μl of these products were then incubated with 0.1 μM of a TMR labeled ligand for the mutant dehalogenase, for 2 hours in the dark. […]

CHO cells = experiment: Protein complementation labeling (PCL) with HT2 in transiently transfected CHO cells; format: cell-based; details: +/−1 μM rapamycin 2.5 hours, 1.0 μM HaloTag TMR ligand 1 hour
Protocol: For transient transfections, CHO cells were plated in a 6 well plate and transfected in duplicate using TransIT®-CHO. The next day, cells were incubated +/−1 μM rapamycin for 2.5 hours followed by 1.0 μM HaloTag® TMR ligand for 1 hour. Cells were washed in PBS, trypsinized, pelleted and mechanically lysed in 200 ul PBS with protease inhibitor and RQDNase I. Normalized amounts of proteins were microwaved for 30 seconds on high and run on a denaturing NuPAGE® gel.

| Molecule | binding to carboxytetramethylrhodamine-C10H21NO2—Cl [1] | improvement over the parental clones using the biotin-PEG4-14-Cl substrate [2] | also measured |
| --- | --- | --- | --- |
| B1 | bound | – | – |
| B2 | – | significantly improved | – |
| B3 | bound | – | – |
| B4 | – | significantly improved | – |
| B5 | – | significantly improved | – |
| B6 | bound | – | fold more protein required in the reaction to obtain measurable rates ([3]; relative to DhaA.H272F H11YL): ~420 fold |
| B7 | bound | – | – |
| B8 | – | – | second order rate constant for carboxytetramethylrhodamine-C10H21NO2—Cl labeling [4]: 500000 M⁻¹ s⁻¹; second order rate constant with carboxytetramethylrhodamine-C10H21NO2—Cl [3]: 2.2e+06 M⁻¹ s⁻¹; carboxyfluorescein-C10H21NO2—Cl labeling rate slower/lower than carboxytetramethylrhodamine-C10H21NO2—Cl labeling rate [5]: 100 fold; TMR labeling [6]: labeled; TMR labeling in CHO cells (CHO cells): labeled irrespective of rapamycin addition |
